From paper PMC12468009, “Development of a QCM-D-Based Aptasensor for the Real-Time Detection of β-Lactoglobulin”

Target: T1, beta-lactoglobulin (β-LG) (bovine? (cow's milk), UniProt P02754 17-178)
T1 sequence: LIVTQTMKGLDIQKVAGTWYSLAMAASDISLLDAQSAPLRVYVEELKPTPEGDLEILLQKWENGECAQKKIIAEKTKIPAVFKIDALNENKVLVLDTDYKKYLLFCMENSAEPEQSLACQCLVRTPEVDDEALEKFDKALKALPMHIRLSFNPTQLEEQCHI
Experiment: dot blot; 100 µg β-LG on nitrocellulose, 400 pmol aptamer in PBS, 37 °C; Dot blot: PBS, 37 °C, 1 h, membrane blocked with 5% BSA/0.01% Tween 20; QCM-D: β-LG in PBS pH 3.5, 37 °C, aptamer 0.5 µM in TRIS with 0.1% BSA for immobilization; PBS (pH 7.4 stock) contains CaCl2 and MgCl2
Details: protein: native; tags: none; chain copies: 2; label: biotin; predicted secondary structure only

B1: Apt 356 (ssDNA)
DNA: GCCTGTTGTGAGCCTCCTAACCTGGTGTGCAAGGTGGACTCTCTTTATCTTGTTGTCAGTCTCATCACCGCATGCTTATTCTTGTCTCCC
modifications: 5'-biotin
  binding result: binds
